Among the data in PMC8558838 (The Journal of Experimental Medicine, 2021) are ratio to parent values, retold here.

First the molecules themselves.
B1: full-length mouse BTLA-EGFP, on cells [mouse] / full-length WT mouse HVEM-mCherry, on cells [mouse] (parent complex)
chain 1: EKATKRNDEECPVQLTITRNSKQSARTGELFKIQCPVKYCVHRPNVTWCKHNGTICVPLEVSPQLYTSWEENQSVPVFVLHFKPIHLSDNGSYSCSTNFNSQVINSHSVTIHVRERTQNSSEHPLITVSDIPDATNASGPSTMEERPGRTWLLYTLLPLGALLLLLACVCLLCFLKRIQGKEKKPSDLAGRDTNLVDIPASSRTNHQALPSGTGIYDNDPWSSMQDESELTISLQSERNNQGIVYASLNHCVIGRNPRQENNMQEAPTEYASICVRS
chain 2: QPSCRQEEFLVGDECCPMCNPGYHVKQVCSEHTGTVCAPCPPQTYTAHANGLSKCLPCGVCDPDMGLLTWQECSSWKDTVCRCIPGYFCENQDGSHCSTCLQHTTCPPGQRVEKRGTHDQDTVCADCLTGTFSLGGTQEECLPWTNCSAFQQEVRRGTNSTDTTCSSQVVYYVVSILLPLVIVGAGIAGFLICTRRHLHTSSVAKELEPFQEQQENTIRFPVTEVGFAETEEETASN
B2: human LIGHT extracellular domain (L83-V240) [human] / WT hHVEM (L39-V202) fused with a PD-L1 transmembrane domain and EGFP, on cells [human] (parent complex)
chain 1: LIQERRSHEVNPAAHLTGANSSLTGSGGPLLWETQLGLAFLRGLSYHDGALVVTKAGYYYIYSKVQLGGVGCPLGLASTITHGLYKRTPRYPEELELLVSQQSPCGRATSSSRVWWDSSFLGGVVHLEAGEKVVVRVLDERLVRLRDGTRSYFGAFMV
chain 2: LPSCKEDEYPVGSECCPKCSPGYRVKEACGELTGTVCEPCPPGTYIAHLNGLSKCLQCQMCDPAMGLRASRNCSRTENAVCGCSPGHFCIVQDGDHCAACRAYATSSPGQRVQKGGTESQDTLCQNCPPGTFSPNGTLEECQHQTKCSWLVTKAGAGTSSSHWV
B3: full-length mouse LIGHT, on cells (mLIGHT-IRES-EGFP) [mouse] / full-length WT mouse HVEM-mCherry, on cells [mouse] (parent complex)
chain 1: MESVVQPSVFVVDGQTDIPFRRLEQNHRRRRCGTVQVSLALVLLLGAGLATQGWFLLRLHQRLGDIVAHLPDGGKGSWEKLIQDQRSHQANPAAHLTGANASLIGIGGPLLWETRLGLAFLRGLTYHDGALVTMEPGYYYVYSKVQLSGVGCPQGLANGLPITHGLYKRTSRYPKELELLVSRRSPCGRANSSRVWWDSSFLGGVVHLEAGEEVVVRVPGNRLVRPRDGTRSYFGAFMV
chain 2: B1 chain 2
B4: mouse CD160 (30I-154H) with C-terminal …, biotinylated [modified: biotin; biotin] [mouse] / full-length WT mouse HVEM-mCherry, on cells [mouse] (parent complex)
chain 1: IHVTSSASQKGGRLDLTCTLWHKKDEAEGLILFWCKDNPWNCSPETNLEQLRVKRDPETDGITEKSSQLVFTIEQATPSDSGTYQCCARSQKPEIYIHGHFLSVLVTGNHTEIRQRQRSHPDFSH
chain 2: B1 chain 2
B5: hCD160-6×His tag protein [human] / WT hHVEM (L39-V202) fused with a PD-L1 transmembrane domain and EGFP, on cells [human] (parent complex)
chain 1: GCINITSSASQEGTRLNLICTVWHKKEEAEGFVVFLCKDRSGDCSPETSLKQLRLKRDPGIDGVGEISSQLMFTISQVTPLHSGTYQCCARSQKSGIRLQGHFFSILFTETGNYTVTGLKQRQHLEFSHNEGTLS
chain 2: B2 chain 2

The variants in the first assay derive from B1. The assay can be described thus: flow cytometry, cell–cell method; read off a plot. A general note: In flow cytometry, cells or beads pass a laser one at a time.
With chain 2 H48A, chain 2 L52A, the ratio to parent is roughly 0.88.

As for chain 2 H48R, chain 2 L52A, the ratio to parent is roughly 1.2.

On to chain 2 G34D, chain 2 V36R, for which the ratio to parent was roughly 0.05. In the case of chain 2 G34D, chain 2 V36D, the ratio to parent is roughly 0.06.

In the case of chain 2 G34D, chain 2 V36A, the ratio to parent was roughly 0.07. Regarding chain 2 G34A, chain 2 V36D, the ratio to parent is roughly 0.06.

As for chain 2 H48D, chain 2 L52D, the ratio to parent is roughly 1.1. On the same count and under the same terms, to chain 2 H48D, chain 2 L52R belongs roughly 1.4. Regarding chain 2 H48D, chain 2 L52A, the ratio to parent was roughly 1.

As to chain 2 G34R, chain 2 V36A, the ratio to parent is roughly 0.06.

The next assay covers variants of B1. The assay can be described thus: flow cytometry, cell–cell method.
For chain 2 M18A, the ratio to parent was found to be 1.2. Take chain 2 M18D: the ratio to parent was found to be 1. Take chain 2 T35D: the ratio to parent worked out at 0.1.

On to chain 2 T35A, for which the ratio to parent worked out at 0.5.

For chain 2 S30H, the ratio to parent amounted to 0.9. With chain 2 S30A, the ratio to parent stood at 1.

As to chain 2 S30D, the ratio to parent worked out at 0.8. On to chain 2 A38D, for which the ratio to parent amounted to 1.2. Consider chain 2 A38W, for which the ratio to parent stood at 1.2.

Take chain 2 K77D: the ratio to parent came out at 1.2.

With chain 2 K77A, the ratio to parent worked out at 1.3. As to chain 2 A49D, the ratio to parent came to 1.3. Take chain 2 L52R: the ratio to parent turned out to be 0.9.

Turning to chain 2 L52D, the ratio to parent is 0.8. For the variant chain 2 L52A, the ratio to parent was determined as 1. With chain 2 V36D, the ratio to parent was found to be 0.8. On to chain 2 V36A, for which the ratio to parent was found to be 1. Consider chain 2 R5D, for which the ratio to parent worked out at 1.2. With chain 2 R5A, the ratio to parent stood at 0.7. With chain 2 H96D, the ratio to parent turned out to be 0.9.

Consider chain 2 N50A, for which the ratio to parent is 1.1. Turning to chain 2 N50D, the ratio to parent amounted to 0.9.

chain 2 S98D: the ratio to parent came to 1. In the case of chain 2 S98A, the ratio to parent stood at 1. As for chain 2 H48R, the ratio to parent was found to be 1.1. Turning to chain 2 H48D, the ratio to parent was found to be 1.1.

chain 2 G51D: the ratio to parent was determined as 1. On to chain 2 G34D, for which the ratio to parent was 0.3. For the variant chain 2 G34R, the ratio to parent was determined as 0.1. chain 2 G34A: the ratio to parent amounted to 1. Take chain 2 P17A: the ratio to parent came to 0.4. On to chain 2 L56D, for which the ratio to parent turned out to be 1.1. In the case of chain 2 L56A, the ratio to parent was found to be 1. On the same count and under the same terms, next, chain 2 E8R: 0.7; chain 2 E8A: 1. In the case of chain 2 T99A, the ratio to parent was found to be 1. On to chain 2 T99D, for which the ratio to parent was 0.9. For chain 2 K26D, the ratio to parent came out at 1.

Regarding chain 2 K26A, the ratio to parent amounted to 0.9.

The next assay covers variants of B2. The assay can be described thus: flow cytometry on cells stained with soluble protein.
For chain 2 G51A, the ratio to parent is 1.2. For the variant chain 2 N50A, the ratio to parent was determined as 0.7. Still for that read-out and setting: next, chain 2 L49A: 1.2; chain 2 L56A: 1.8; chain 2 L52A: 0.9. For the variant chain 2 E77A, the ratio to parent is 1.

The variants in another assay derive from B3. The assay can be described thus: flow cytometry, cell–cell method; read off a plot.
For the variant chain 2 H48A, chain 2 L52A, the ratio to parent is roughly 0.28. Still for that read-out and setting: to chain 2 H48D, chain 2 L52R belongs roughly 0.37; to chain 2 H48D, chain 2 L52D, roughly 0.25. Regarding chain 2 H48D, chain 2 L52A, the ratio to parent was roughly 0.24. Turning to chain 2 H48R, chain 2 L52A, the ratio to parent is roughly 0.3. chain 2 G34R, chain 2 V36A: the ratio to parent is roughly 1.2. On to chain 2 G34A, chain 2 V36D, for which the ratio to parent was roughly 1.1. In the case of chain 2 G34D, chain 2 V36D, the ratio to parent was roughly 0.87. Same read-out and setting: next, chain 2 G34D, chain 2 V36R: roughly 1.3; chain 2 G34D, chain 2 V36A: roughly 1.1.

The variants in a further assay derive from B3. The assay can be described thus: flow cytometry, cell–cell method.
In the case of chain 2 G34R, the ratio to parent was 0.6. For chain 2 L52R, the ratio to parent is 0.4. Turning to chain 2 G51D, the ratio to parent came out at 0.4.

For the variant chain 2 S98A, the ratio to parent was determined as 0.9. On to chain 2 L56D, for which the ratio to parent came out at 0.6.

With chain 2 T35A, the ratio to parent stood at 0.7.

Variants of B4 are the subject of a further assay. The assay can be described thus: flow cytometry, cell–protein method.
Regarding chain 2 S98D, the ratio to parent stood at 1.1. Same read-out and setting: next, chain 2 S98A: 1.1; chain 2 E8R: 0.1; chain 2 E8A: 0.1. Consider chain 2 S30A, for which the ratio to parent worked out at 0.9. In the case of chain 2 S30D, the ratio to parent was determined as 0.8. As to chain 2 S30H, the ratio to parent is 0.6. Turning to chain 2 L56D, the ratio to parent is 0.9.

chain 2 L56A: the ratio to parent was 1. The same measure, in the same setting: next, chain 2 P17A: 0.1. Take chain 2 T99A: the ratio to parent turned out to be 1.1. chain 2 T99D: the ratio to parent was 1.3.

With chain 2 A38D, the ratio to parent was determined as 0.1.

As for chain 2 A38W, the ratio to parent was 1.1. On the same count and under the same terms, to chain 2 H96D belongs 1; to chain 2 T35D, 0.1. With chain 2 T35A, the ratio to parent came out at 0.1. Consider chain 2 L52R, for which the ratio to parent was determined as 0.8. In the case of chain 2 L52A, the ratio to parent amounted to 0.9. Turning to chain 2 L52D, the ratio to parent came out at 0.9.

Take chain 2 G34D: the ratio to parent is 0.1. In the case of chain 2 G34R, the ratio to parent came out at 0.1. Take chain 2 G34A: the ratio to parent worked out at 0.1. chain 2 K77A: the ratio to parent amounted to 1.1. For the variant chain 2 K77D, the ratio to parent stood at 0.6.

Consider chain 2 M18A, for which the ratio to parent stood at 0.6. For chain 2 M18D, the ratio to parent came to 0.1.

In the case of chain 2 G51D, the ratio to parent turned out to be 0.3. chain 2 A49D: the ratio to parent turned out to be 0.7. Take chain 2 V36D: the ratio to parent turned out to be 0.1. Consider chain 2 V36A, for which the ratio to parent came out at 1. As for chain 2 H48R, the ratio to parent is 1. The same measure, in the same setting: to chain 2 H48D belongs 1.1; to chain 2 K26D, 0.6; to chain 2 K26A, 0.7.

Turning to chain 2 N50D, the ratio to parent was determined as 0.1. For the variant chain 2 N50A, the ratio to parent came out at 0.1. For the variant chain 2 R5D, the ratio to parent was found to be 0.1. For the variant chain 2 R5A, the ratio to parent came to 0.2.

In the next assay the parent is B4. The assay can be described thus: flow cytometry, cell–protein method; read off a plot.
For chain 2 H48D, chain 2 L52D, the ratio to parent is roughly 0.76. Take chain 2 H48D, chain 2 L52R: the ratio to parent is roughly 0.66.

On to chain 2 H48R, chain 2 L52A, for which the ratio to parent is roughly 1. On to chain 2 G34A, chain 2 V36D, for which the ratio to parent is roughly 0.01. chain 2 G34R, chain 2 V36A: the ratio to parent is roughly 0.01. Still for that read-out and setting: next, chain 2 H48A, chain 2 L52A: roughly 1.4; chain 2 G34D, chain 2 V36D: roughly 0.01; chain 2 G34D, chain 2 V36R: roughly 0.01. chain 2 G34D, chain 2 V36A: the ratio to parent was roughly 0.01.

The variants in another assay derive from B5. Nature of the assay: flow cytometry on cells stained with soluble protein.
Turning to chain 2 L49A, the ratio to parent was 1.3. chain 2 L56A: the ratio to parent was found to be 1.1. In the case of chain 2 E77A, the ratio to parent is 1.1. Consider chain 2 G51A, for which the ratio to parent stood at 0.9. Turning to chain 2 L52A, the ratio to parent is 1.1. Consider chain 2 N50A, for which the ratio to parent is 0.8.
